# Test results published in IntAct's records for PubMed 11356188.
# B1: Circadian clock oscillator protein KaiC (Synechococcus elongatus (strain PCC 7942)), Q79PF4 (parent)
# chain: MTSAEMTSPNNNSEHQAIAKMRTMIEGFDDISHGGLPIGRSTLVSGTSGTGKTLFSIQFLYNGIIEFDEPGVFVTFEETPQDIIKNARSFGWDLAKLVDEGKLFILDASPDPEGQEVVGGFDLSALIERINYAIQKYRARRVSIDSVTSVFQQYDASSVVRRELFRLVARLKQIGATTVMTTERIEEYGPIARYGVEEFVSDNVVILRNVLEGERRRRTLEILKLRGTSHMKGEYPFTITDHGINIFPLGAMRLTQRSSNVRVSSGVVRLDEMCGGGFFKDSIILATGATGTGKTLLVSRFVENACANKERAILFAYEESRAQLLRNAYSWGMDFEEMERQNLLKIVCAYPESAGLEDHLQIIKSEINDFKPARIAIDSLSALARGVSNNAFRQFVIGVTGYAKQEEITGLFTNTSDQFMGAHSITDSHISTITDTIILLQYVEIRGEMSRAINVFKMRGSWHDKAIREFMISDKGPDIKDSFRNFERIISGSPTRITVDEKSELSRIVRGVQEKGPES
# partner: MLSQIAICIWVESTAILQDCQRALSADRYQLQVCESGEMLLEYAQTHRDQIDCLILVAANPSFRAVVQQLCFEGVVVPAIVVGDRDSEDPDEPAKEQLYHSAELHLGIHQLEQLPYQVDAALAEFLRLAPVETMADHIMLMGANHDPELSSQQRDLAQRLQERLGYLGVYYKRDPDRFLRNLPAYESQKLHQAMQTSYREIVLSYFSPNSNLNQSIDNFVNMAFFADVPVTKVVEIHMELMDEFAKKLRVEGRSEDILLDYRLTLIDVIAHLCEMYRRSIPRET
# B2: Circadian clock oscillator protein KaiA (Synechococcus elongatus (strain PCC 7942)), Q79PF6 (parent)
# chain: B1 partner
# partner: B1 chain
# Variants of: B1
# Settings: with kaia_syne7 kaiA, Q79PF6
row,effect of a mutation on the interaction,Variant
1,decreasing interaction,P248K
2,decreasing interaction,R215C

# Variants of: B1
# Settings: with kaia_syne7 kaiA, Q79PF6
# Remark: another data set of the same source
row,effect of a mutation on the interaction,Variant
1,decreasing interaction,T495A

# Variants of: B2
# Settings: with kaic_syne7 kaiC, Q79PF4
row,effect of a mutation on the interaction,Variant
1,decreasing interaction,Y166C

# Variants of: B2
# Settings: with kaic_syne7 kaiC, Q79PF4
# Remark: another data set of the same source
row,effect of a mutation on the interaction,Variant
1,decreasing interaction,R249H
